Results as given in US20220064334A1 (Janssen / Centocor, published 2022).

Key:
[1] = target: T1, KLK2 CAR KL2B413-LH expressed on SupT1 cells; assay: flow cytometry on KL2B413-LH CAR SupT1 cells, directly PE-labelled antibody, PE median fluorescence
T1 construct: also called SupT1-KL2B413 LH; KL2B413-LH SupT1
Experimental: Multiple lots of PE-A002B39 were compared to assess differences in binding to KL2B413LH-SupT1 cells across batches. KL2B413-LH SupT1 cells (200,000 cells/well) were stained with LIVE/DEAD Fixable Near-IR viability dye and incubated with increasing concentrations of PE-A002B39 for 30 minutes on ice. After incubation, washing, and fixation, the samples were acquired on a 10 color FACSCanto II flow cytometer. Analysis was done using FlowJo analysis software and the PE median fluorescent intensity of live SupT1 cells is plotted in FIG. 7.

KL2B513 [2] = target: T2, KL2B513; assay: SPR, ProteOn XPR36; antibody captured on anti-mouse Fc, scFv-Fc fusion as analyte
T2 construct: KL2B413-derived scFv-Fc fusion protein with the variable regions in VL-VH orientation; also called KL2B413-LH-scFv; KL2B413-LH scFv-Fc fusion protein; not shown: Fc part of the scFv-Fc fusion and its junction to the scFv
Experimental: (§1) ProteOn XPR36 system (BioRad) was used to perform binding assays. ProteOn GLC chips (BioRad, Cat#176-5011) were coated with Anti-Mouse Fc antibody. Library Antibodies (Mouse IgG2a) were diluted to 0.25 ug/ml to 1 ug/ml to reach approximately 100-200RL. Antigens (scFv-Fc Fusions) were associated at 1000 nM to 0.4 nM, 1:4 dilutions for 3 minutes, followed by dissociation for 30 mins. The results of the assay (Table 1 below) show similar binding affinity of A002B39 with both KLB513 and KLB610.

KL2B610 = target: T3, KL2B610; assay: as above
T3 construct: KL2B413-derived scFv-Fc fusion protein with the variable regions in VH-VL orientation; also called KL2B413-HL-scFv; KLB610; not shown: Fc part of the scFv-Fc fusion and its junction to the scFv
Experimental: as §1

[3] = target: T1, KLK2 CAR KL2B413-LH expressed on SupT1 …; assay: flow cytometry on KL2B413-LH SupT1 cells, PE goat anti-mouse IgG detection, PE median fluorescence
Experimental: SupT1 cells expressing KL2B413LH were compared to parental CAR-SupT1 cells. Cells (100,000 cells/well) were stained with LIVE/DEAD Fixable Near-IR viability dye (Life Technologies L10119) and then incubated with increasing concentrations of A002B39 for 30 minutes on ice. Following incubation, the samples were washed with BSA stain buffer (BD Biosciences #554657) and stained with PE-goat anti-mouse IgG polyclonal antibody (Biolegend #405307) to detect bound antibody on live CAR+SupT1 cells. After incubation, washing, and fixation (Cytofix, BD Biosciences), the samples were acquired on a 10 color FACSCanto II (BD Biosciences) flow cytometer. Analysis was done using FlowJo and the PE median fluorescent intensity of live SupT1 cells is plotted in FIG. 4. […] No binding was detected on CAR-SupT1 parental cells.

KL2B513 [4] = target: T2, KL2B513; assay: SPR, Biacore; antibody captured on anti-mouse Fc, scFv-Fc fusion as analyte
Experimental: Anti-Mouse Fc antibody directly immobilized on M5 sensor chip. Library Antibodies (Mouse IgG2a) diluted to 1 ug/ml to reach approximately 20-50 RU. Antigens (scFV Fc Fusions) are associated at 500 nM to 0.8 nM, 1:5 dilutions for 3 minutes. Dissociation for 30 mins.

T2 sequence (scFv, as listed by the source limits assumed): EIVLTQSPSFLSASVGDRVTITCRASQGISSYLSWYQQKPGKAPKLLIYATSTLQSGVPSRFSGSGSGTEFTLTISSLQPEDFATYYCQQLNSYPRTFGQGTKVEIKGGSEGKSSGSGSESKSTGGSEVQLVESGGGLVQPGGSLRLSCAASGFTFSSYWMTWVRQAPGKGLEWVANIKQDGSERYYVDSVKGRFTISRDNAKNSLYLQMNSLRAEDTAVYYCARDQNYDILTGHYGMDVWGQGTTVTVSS
T3 sequence (scFv, as listed by the source limits assumed): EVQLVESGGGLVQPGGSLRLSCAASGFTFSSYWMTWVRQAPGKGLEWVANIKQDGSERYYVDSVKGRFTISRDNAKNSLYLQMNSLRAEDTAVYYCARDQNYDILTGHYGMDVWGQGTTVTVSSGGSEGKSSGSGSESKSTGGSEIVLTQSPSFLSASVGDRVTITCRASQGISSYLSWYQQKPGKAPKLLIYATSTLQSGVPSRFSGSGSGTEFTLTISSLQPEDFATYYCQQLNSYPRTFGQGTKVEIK
T1 sequence (chain, as listed by the source limits assumed): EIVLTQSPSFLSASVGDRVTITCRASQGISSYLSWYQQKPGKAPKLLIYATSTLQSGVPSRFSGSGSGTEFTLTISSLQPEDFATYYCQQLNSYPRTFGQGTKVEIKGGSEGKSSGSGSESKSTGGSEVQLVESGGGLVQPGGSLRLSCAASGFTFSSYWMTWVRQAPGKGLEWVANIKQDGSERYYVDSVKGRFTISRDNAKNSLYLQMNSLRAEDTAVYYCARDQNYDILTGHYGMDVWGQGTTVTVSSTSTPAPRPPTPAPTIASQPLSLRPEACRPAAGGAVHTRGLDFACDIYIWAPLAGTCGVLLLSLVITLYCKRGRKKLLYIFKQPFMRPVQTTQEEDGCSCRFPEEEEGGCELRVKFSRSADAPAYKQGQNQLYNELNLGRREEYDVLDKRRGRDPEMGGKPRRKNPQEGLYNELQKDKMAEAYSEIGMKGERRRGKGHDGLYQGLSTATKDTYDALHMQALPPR

EC50 [1] [µg/mL] | Kd (KL2B513 [2]) [nM] | koff (KL2B513 [2]) [s⁻¹] | kon (KL2B513 [2]) [M⁻¹ s⁻¹] | Kd (KL2B610) [nM] | koff (KL2B610) [s⁻¹] | kon (KL2B610) [M⁻¹ s⁻¹] | EC50 [3] [µg/mL] | Kd (KL2B513 [4]) [nM] | koff (KL2B513 [4]) [s⁻¹] | kon (KL2B513 [4]) [M⁻¹ s⁻¹] | Binder
1.6 | – | – | – | – | – | – | – | – | – | – | PE-A002B39 (antibody, mouse IgG2a, kappa, V domains shown, R-phycoerythrin conjugate, 1:1 PE:antibody; attachment site and chain not stated, also called A002B39 conjugated to R-PE) VH: EVQLVQSGAEVKKPGSSVKVSCKASGGTFSSYAISWVRQAPGQGLEWMGGIIPIFGTANYAQKFQGRVTITADESTSTAYMELSSLRSEDTAVYYCARVQWGLDYWGQGTLVTVSS VL: EIVLTQSPATLSLSPGERATLSCRASQSVDSALAWYQQKPGQAPRLLIYGASNRATGIPARFSGSGSGTDFTLTISSLEPEDFAVYYCQQRFNWPITFGQGTKVEIKR
– | 0.99 | 0.000333 | 339000 | 1.11 | 0.000315 | 285000 | 0.4 | 3.49 | 0.000202 | 57900 | A002B39 (antibody, mouse IgG2a, kappa, V domains shown, expressed in HEK293 Expi or CHO; also called A002M39) VH: EVQLVQSGAEVKKPGSSVKVSCKASGGTFSSYAISWVRQAPGQGLEWMGGIIPIFGTANYAQKFQGRVTITADESTSTAYMELSSLRSEDTAVYYCARVQWGLDYWGQGTLVTVSS VL: EIVLTQSPATLSLSPGERATLSCRASQSVDSALAWYQQKPGQAPRLLIYGASNRATGIPARFSGSGSGTDFTLTISSLEPEDFAVYYCQQRFNWPITFGQGTKVEIKR
